Reference: PMC4760772, “The Development of a Recombinant scFv Monoclonal Antibody Targeting Canine CD20 for Use in Comparative Medicine” (PLoS ONE, 2016)

How the values were obtained:
[1] = target: T1, biotinylated canine CD20 peptide (biotin-SGSGNCDPANPSEKNSLSIQYCGS) (canine, biotin on the N-terminus); test: BLI; with DTT
T1 peptide: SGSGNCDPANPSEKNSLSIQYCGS

[2] = target: T1, biotinylated canine CD20 peptide …; test: BLI; without DTT
[3] = target: T2, biotinylated canine CD20 peptide (biotin-SGSGNCDPANPSEKNSLSIQYCGS) (Canis lupus familiaris, biotin on the N-terminus); test: BLI; Octet RED, as a1 but in the presence of DTT; relative Kd; conditions: both partners purified
T2 construct: spacer between the biotin and the CD20 stretch; also called biotinylated CD20 peptide
T2 chain: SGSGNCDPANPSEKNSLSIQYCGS

[4] = target: T3, bacterially expressed his-tagged canine CD20 protein (amino acids 140–190) (Canis lupus familiaris, UniProt Q3C2E2); test: immunoblot; purified his-tagged canine CD20 (140-190) after electrophoresis without and with DTT, blotted with NCD1.2; conditions: both partners purified
T3 construct: canine CD20, amino acids 140-190 comprising the extracellular domain; also called recombinant canine CD20 protein; His-tagged CD20 protein; source: bacterially expressed, purified by nickel chromatography
T3 sequence (Q3C2E2 140-190): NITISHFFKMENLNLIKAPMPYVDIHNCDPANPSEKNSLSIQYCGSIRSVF

[5] = target: T4, endogenous canine CD20 protein in 3132 canine lymphoma cells (Canis lupus familiaris (Dog) (Canis …, UniProt Q3C2E2)); test: immunoblot; lysates or chemical fractions of 3132 canine lymphoma cells, and lysates of H1299 cells transfected with human GFP-CD20, blotted with NCD1.2; conditions: one partner purified
T4 construct: canine CD20, endogenous protein; also called authentic canine CD20 protein
T4 sequence (Q3C2E2 whole entry): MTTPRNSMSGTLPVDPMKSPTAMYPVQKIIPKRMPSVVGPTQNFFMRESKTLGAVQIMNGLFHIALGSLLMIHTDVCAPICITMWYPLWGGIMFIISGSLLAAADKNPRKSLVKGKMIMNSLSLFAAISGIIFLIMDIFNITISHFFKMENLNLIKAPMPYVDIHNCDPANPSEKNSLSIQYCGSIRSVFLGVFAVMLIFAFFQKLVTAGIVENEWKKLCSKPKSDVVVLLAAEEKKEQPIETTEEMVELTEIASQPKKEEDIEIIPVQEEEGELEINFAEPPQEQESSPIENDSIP

[6] = target: T5, canine CD20 protein in clinically-derived canine cells and tissue (Canis lupus familiaris (Dog) (Canis …, UniProt Q3C2E2)); test: immunostaining of cells or tissue; immunohistochemistry on formalin fixed paraffin embedded canine lymphoma tissue (tissue micro array), heat induced antigen retrieval; conditions: one partner purified
T5 construct: canine CD20 on normal B cells and B-cell lymphoma cells of dogs; also called membranous CD20; CD20 in canine tissue
T5 sequence (Q3C2E2 whole entry): as above

[7] = target: T2, biotinylated canine CD20 peptide …; test: BLI; Octet RED, biotinylated CD20 peptide on streptavidin biosensors, antibody 32 nM to 0.5 nM in solution, 30°C, PBS pH 7.4 with 0.02% Tween 20, 0.005% sodium azide, 100 μg/mL BSA; global fit 1:1; relative Kd; absence of DTT; conditions: both partners purified
[8] = target: T6, fluorescein-labeled peptide corresponding to human CD20 (NCEPANPSEKNSPSTQYCYS) (Homo sapiens (Human)., fluorescein (FITC) label, position not stated); test: fluorescence polarisation; antibody titrated against 30 nM fluorescein-labeled human CD20 peptide in PBS, 0.05% Tween-20; 1 hr at room temperature, read at 21°C; purified mouse immunoglobulins subtracted as nonspecific binding; conditions: both partners purified
T6 construct: also called FITC tagged human CD20 peptide; fluorescent human CD20 peptide
T6 chain: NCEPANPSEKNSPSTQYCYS

[9] = target: T3, bacterially expressed his-tagged canine …; test: ELISA; CHO supernatants (diluted 1:40 or 1:80) on His-tagged CD20 protein or on biotinylated CD20 peptide; detected with peroxidase conjugated protein A, TMB, OD 450 nm; conditions: one partner purified

B1: monoclonal antibody NCD1.2 (antibody, V domains shown)
VH: VESGGGLVQPGDSLRLSCATSGFTFTDYFMSWVRQPPGKSLEWLGLIRNKVNGYTAEYSASVKGRFTISRDNSRGILYLQMYTLRAEDSATYYCVRASTGTSFVYWGQGTLVTVSA
VL: AAAFSNPVTLGTSVSISCRSSKSLLHRNGFTYLYWYLQRPGQSPQLLIYQMSNLASGVPDRFSSSGSGTDFTLRISRVEAEDVGVYYCAQNLELPFTFGGGTKLELK
notes: VH cloned from the NCD1.2 hybridoma, as the VH of m9 and m10 (scFv-3 and scFv-7; identical VH genes, identical CDRs); the first residues of the cloned VH come from degenerate PCR primers; constant region of a mouse IgG; VL as the VL of m9 (scFv-3) or of m10 (scFv-7); both light chain mRNAs are made by the hybridoma; mouse light chain constant region; not described; IgG; also called NCD1.2 MAB; …
koff [1]: 3.41e-05 s⁻¹
koff [2]: 3.19e-05 s⁻¹
Kd [3]: 0.31 nM
binding result [4]: binds
binding result [5]: binds
binding result [6]: binds
Kd [7]: 0.34 nM
binding result [8]: binds

B2: scFv-3 secreted from CHO cells (scFv, V domains shown)
VH: EVNVVESGGGLVQPGDSLRLSCATSGFTFTDYFMSWVRQPPGKSLEWLGLIRNKVNGYTAEYSASVKGRFTISRDNSRGILYLQMYTLRAEDSATYYCVRASTGTSFVYWGQGTLVTVSA
VL: DIVMTQPPAIMSASPGEKVTMTCSASSSVSYMHWYQQKSGTSPKRWIYDTSKLASGVPDRFSSSGSGTDFTLRISRVEAEDVGVYYCAQNLELPFTFGGGTKLEIK
notes: VL of scFv-3, as in m9; linker, as in m9; VH of scFv-3, as in m9; Cloned into the KpnI-EcoRI sites of pCDNA3.1; also called scFv-3 supernatant
binding result [9]: binds

B3: scFv-7 secreted from CHO cells (scFv, V domains shown)
VH: EVQGVESGGGLVQPGDSLRLSCATSGFTFTDYFMSWVRQPPGKSLEWLGLIRNKVNGYTAEYSASVKGRFTISRDNSRGILYLQMYTLRAEDSATYYCVRASTGTSFVYWGQGTLVTVSA
VL: IVMTQAAAFSNPVTLGTSVSISCRSSKSLLHRGFTYLYWYLQRPGQSPQLLIYQMSNLASGVPDRFSSSGSGTDFTLRISRVEAEDVGVYYCAQNLELPFTFGGGTKLELK
notes: VL of scFv-7, as in m10; linker, as in m10; VH of scFv-7, as in m10; Cloned into the KpnI-EcoRI sites of pCDNA3.1; also called scFv-7 supernatant
binding result [9]: binds
